Experimental data: PMC6119766, “Terminal Regions Confer Plasticity to the Tetrameric Assembly of Human HspB2 and HspB3” (Journal of Molecular Biology, 2018)
Positions count from the first letter of the chain named.

B1: human HspB2 (natural protein, UniProt Q16082 1-182, looked up)
chain: MSGRSVPHAHPATAEYEFANPSRLGEQRFGEGLLPEEILTPTLYHGYYVRPRAAPAGEGSRAGASELRLSEGKFQAFLDVSHFTPDEVTVRTVDNLLEVSARHPQRLDRHGFVSREFCRTYVLPADVDPWRVRAALSHDGILNLEAPRGGRHLDTEVNEVYISLLPAPPDPEEEEEAAIVEP
notes: human HspB2 (small heat shock protein B2); Made together with HspB3 from one pET3a construct; also called HsB2; HspB2_Human; source: E. coli BL21(DE3), pET3a-HspB2/B3, purified (DEAE-Sepharose, Source 15Q)
B2: engineered human HspB3 with the C-terminal extension of human HspB2 (HspB3 + B2tail) (other)
chain: MAKIILRHLIEIPVRYQEEFEARGLEDCRLDHALYALPGPTIVDLRKTRAAQSPPVDSAAETPPREGKSHFQILLDVVQFLPEDIIIQTFEGWLLIKAQHGTRMDEHGFISRSFTRQYKLPDGVEIKDLSAVLCHDGILVVEVKDPVGTPEEEEEAAIVEP
notes: human HspB3 without its C-terminal lysine, which was replaced by the HspB2 tail; last 12 amino acids of human HspB2, residues 171-182; The results say the tail was added to the C-terminus; the methods say it replaced the C-terminal lysine (the reverse primer fits the methods); also called engineered HspB3 mutant; engineered mutant human HspB3; source: E. coli BL21(DE3), pET3a-HspB2/B3 mutant, …
B3: human HspB3 (wild type) (natural protein, UniProt Q12988 1-150, looked up)
chain: MAKIILRHLIEIPVRYQEEFEARGLEDCRLDHALYALPGPTIVDLRKTRAAQSPPVDSAAETPPREGKSHFQILLDVVQFLPEDIIIQTFEGWLLIKAQHGTRMDEHGFISRSFTRQYKLPDGVEIKDLSAVLCHDGILVVEVKDPVGTK
notes: human HspB3 (small heat shock protein B3); HspB3 could not be purified alone; it is obtained only in complex with HspB2; also called HsB3; HspB3_Human; source: E. coli BL21(DE3), pET3a-HspB2/B3 wild type, purified with HspB2 (DEAE-Sepharose, Source 15Q)
B4: rat HspB2 (natural protein, UniProt O35878 1-182, looked up)
chain: B1 chain with S5T, P55R, S60G, A177V, I179R
notes: rat HspB2, wild type; C-terminal residues E172 to P182 seen by NMR; also called RnB2; HspB2_Rat
B5: rat HspB3 (natural protein, UniProt Q9QZ58 1-152, looked up)
chain: MAKIILRHLIETPVRYQEEFEARGLEDCRLDHALYALPGPTIEDLRKARGTPKALAEDSDSAETPPGEGKSRFQILLDVVQFLPEDIIIQTFEGWLLIKAQHGTRMDEHGFISRSFTRQYKLPDGVETKDLSAILCHDGILVVEVKDPLETK
notes: rat HspB3, wild type; ultimate C-terminal residue K152; also called RnB3; HspB3_Rat
B6: rat HspB2/B3 hetero-tetramer (complex)
chain 1: B1 chain with S5T, P55R, S60G, A177V, I179R
chain 2: B5 chain
notes: rat HspB2, as m5; rat HspB3, as m6; The protomer that forms the higher oligomers; also called wild-type rat HspB2/B3; copies: 3 + 1

Tests used:
human HspB3 (wild type) = molecular target: B3; assay: SEC + native MS; HspB2/B3 complexes; Superdex 200 10/300 fractions nanoelectrosprayed at 10 μM in 200 mM ammonium acetate (pH 6.9); conditions: both partners purified
[1] = molecular target: B2; assay: as above; conditions: both partners purified
[2] = molecular target: the molecule itself; assay: crystal structure; hanging drop at 21 °C; 3.9 Å; space group P3(1); three hetero-tetramers (12 chains) in the asymmetric unit
human HspB2 [3] = molecular target: B1; assay: as above; conditions: both partners purified
rat HspB2 = molecular target: B4; assay: SEC + native MS; HspB2/B3 complexes; Superdex 200 10/300 fractions nanoelectrosprayed at 10 μM in 200 mM ammonium acetate (pH 6.9); conditions: both partners purified
rat HspB3 = molecular target: B5; assay: as above; conditions: both partners purified
human HspB2 [4] = molecular target: B1; assay: as above; conditions: both partners purified
[5] = molecular target: the molecule itself; assay: as above

With B1 the “stoichiometry N” value (human HspB3 (wild type)) was 3 HspB2 per HspB3, the “stoichiometry N” value [1] was 3 HspB2 per HspB3 and the binding result [2] was “binds”.

B2: binds (human HspB2 [3]).

B3: binds (rat HspB2).

B4 was tested, and the “stoichiometry N” value (rat HspB3) was 3 HspB2 per HspB3.

B5: binds (human HspB2 [4]).

In the case of B6, the “stoichiometry N” value [5] is reported as 8 to 24 chains (the hetero-tetramer has 4).
